Source: paper PMC10397247

How the values were obtained:
P10SHb = molecular target: T1, P10SHb; experiment: two-hybrid library CCNG1;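 note: natural log of median RNA to DNA barcode read ratio; higher means stronger binding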
T1 chain: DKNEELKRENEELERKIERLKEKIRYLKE

P7SHb = molecular target: T2, P7SHb; experiment: two-hybrid library CCNG1;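 note: natural log of median RNA to DNA barcode read ratio; higher means stronger binding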
T2 chain: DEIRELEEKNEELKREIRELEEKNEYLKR

P8SHb = molecular target: T3, P8SHb; experiment: two-hybrid library CCNG1;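 note: natural log of median RNA to DNA barcode read ratio; higher means stronger binding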
T3 chain: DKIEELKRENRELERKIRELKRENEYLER

P12SHb = molecular target: T4, P12SHb; experiment: two-hybrid library CCNG1;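 note: natural log of median RNA to DNA barcode read ratio; higher means stronger binding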
T4 chain: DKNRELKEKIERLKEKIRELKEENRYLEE

P4SHb = molecular target: T5, P4SHb; experiment: two-hybrid library CCNG1;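 note: natural log of median RNA to DNA barcode read ratio; higher means stronger binding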
T5 chain: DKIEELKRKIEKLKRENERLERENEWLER

P2SHb = molecular target: T6, P2SHb; experiment: two-hybrid library CCNG1;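 note: natural log of median RNA to DNA barcode read ratio; higher means stronger binding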
T6 chain: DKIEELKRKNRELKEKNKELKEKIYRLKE

P6SHb = molecular target: T7, P6SHb; experiment: two-hybrid library CCNG1
T7 chain: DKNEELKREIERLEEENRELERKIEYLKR

P1SHb = molecular target: T8, P1SHb; experiment: two-hybrid library CCNG1
T8 chain: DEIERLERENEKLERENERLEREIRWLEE

P3SHb = molecular target: T9, P3SHb; experiment: two-hybrid library CCNG1
T9 chain: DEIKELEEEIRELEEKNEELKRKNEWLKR

P11SHb = molecular target: T10, P11SHb; experiment: two-hybrid library CCNG1
T10 chain: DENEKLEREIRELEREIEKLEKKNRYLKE

P5SHb = molecular target: T11, P5SHb; experiment: two-hybrid library CCNG1
T11 chain: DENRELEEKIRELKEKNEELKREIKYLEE

P9SHb = molecular target: T12, P9SHb; experiment: two-hybrid library CCNG1
T12 chain: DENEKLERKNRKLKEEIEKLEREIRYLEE

4H349-bN = molecular target: T13, 4H349-bN; experiment: two-hybrid library CCNG1
T13 chain: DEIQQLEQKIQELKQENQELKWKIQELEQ

P10A-bN = molecular target: T14, P10A-bN; experiment: two-hybrid library CCNG1
T14 chain: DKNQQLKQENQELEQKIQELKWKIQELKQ

4H3381-bN = molecular target: T15, 4H3381-bN; experiment: two-hybrid library CCNG1
T15 chain: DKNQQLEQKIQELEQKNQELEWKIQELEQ

4H932-bN = molecular target: T16, 4H932-bN; experiment: two-hybrid library CCNG1
T16 chain: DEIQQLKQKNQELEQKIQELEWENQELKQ

4H3297-bN = molecular target: T17, 4H3297-bN; experiment: two-hybrid library CCNG1
T17 chain: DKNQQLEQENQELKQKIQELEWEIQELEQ

4H264-bN = molecular target: T18, 4H264-bN; experiment: two-hybrid library CCNG1
T18 chain: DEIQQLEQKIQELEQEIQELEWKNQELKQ

4H3041-bN = molecular target: T19, 4H3041-bN; experiment: two-hybrid library CCNG1
T19 chain: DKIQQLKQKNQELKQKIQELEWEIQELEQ

4H570-bA = molecular target: T20, 4H570-bA; experiment: two-hybrid library CCNG1
T20 chain: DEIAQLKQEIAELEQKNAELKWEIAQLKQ

4H3364-bN = molecular target: T21, 4H3364-bN; experiment: two-hybrid library CCNG1
T21 chain: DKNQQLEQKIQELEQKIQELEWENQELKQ

4H2859-bN = molecular target: T22, 4H2859-bN; experiment: two-hybrid library CCNG1
T22 chain: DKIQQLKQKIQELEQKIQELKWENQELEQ

4H2931-bN = molecular target: T23, 4H2931-bN; experiment: two-hybrid library CCNG1
T23 chain: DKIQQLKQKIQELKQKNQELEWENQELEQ

4H949-bN = molecular target: T24, 4H949-bN; experiment: two-hybrid library CCNG1
T24 chain: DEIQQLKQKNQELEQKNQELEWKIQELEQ

4H2760-bN = molecular target: T25, 4H2760-bN; experiment: two-hybrid library CCNG1
T25 chain: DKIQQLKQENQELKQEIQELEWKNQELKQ

4H796-bN = molecular target: T26, 4H796-bN; experiment: two-hybrid library CCNG1
T26 chain: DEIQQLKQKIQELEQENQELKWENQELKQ

4H730-bN = molecular target: T27, 4H730-bN; experiment: two-hybrid library CCNG1
T27 chain: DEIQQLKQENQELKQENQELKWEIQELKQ

4H56-bN = molecular target: T28, 4H56-bN; experiment: two-hybrid library CCNG1
T28 chain: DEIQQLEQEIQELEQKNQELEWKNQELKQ

Core_NINN-es_KKKK = molecular target: T29, Core_NINN-es_KKKK; experiment: two-hybrid library CCmax; conditions: mean of both orientations
T29 chain: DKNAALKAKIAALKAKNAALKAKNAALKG

With DKNEELKRENEELERKIERLKEKIRYLKE [P10SHb] the interaction score (P10SHb) was 0.734, the interaction score (P7SHb) was -0.582 and the interaction score (P8SHb) was -0.0171. It also gave an interaction score (P12SHb) of -0.4, an interaction score (P4SHb) of -0.49 and an interaction score (P2SHb) of 0.782. It also gave an interaction score (P6SHb) of 1.07, an interaction score (P1SHb) of -1.44 and an interaction score (P3SHb) of -1.86. It also gave an interaction score (P11SHb) of 1.08, an interaction score (P5SHb) of 0.808 and an interaction score (P9SHb) of 1.97.

For DEIQQLEQKIQELEQEIQELEWKNQELKQ [4H264-bN], the interaction score (4H349-bN) was 0.605, the interaction score (P10A-bN) was -2.47 and the interaction score (4H3381-bN) was 0.605. It also gave an interaction score (4H932-bN) of -0.218, an interaction score (4H3297-bN) of 0.44 and an interaction score (4H264-bN) of -0.816. For the same binder, the interaction score (4H3041-bN) was 1.54, the interaction score (4H570-bA) was -2.9 and the interaction score (4H3364-bN) was 0.517. It also gave an interaction score (4H2859-bN) of 1.92, an interaction score (4H2931-bN) of 1.31 and an interaction score (4H949-bN) of -0.338. The interaction score (4H2760-bN) was -0.23, the interaction score (4H796-bN) was -0.162 and the interaction score (4H730-bN) was 0.137. For the same binder, the interaction score (4H56-bN) was 0.479.

With DENAALEAEIAALEAENAALEAENAALEG [Core_NINN-es_EEEE] the interaction score (Core_NINN-es_KKKK) was 2.
